This test concerns the target Delta-RBD (SARS-CoV-2, UniProt P0DTC2). As to the kind of experiment: BLI. For orientation: In BLI a coated tip is dipped into the sample, and binding shifts an interference pattern.

The koff is a measure of how fast the partners let go of each other. A higher koff goes with fast dissociation.

B1: sACE2_(2).S14-IgG1 (Fc fusion)
chain: QSTIEEQAKYFLDKFNHEAEDLFYQSSLASWNYNTNITEENVQNMNNAGDKWSAFLKEQSTTAQMYPLQEIQNLTVKLQLQALQQNGSSVLSEDKSKRLNTILNTMSTIYSTGKVCNPDNPQECLLLEPGLNEIMANSLDYNERLWAWESWRSEVGKQLRPLYEEYVVLKNEMARANHYEDYGDYWRGDYEVNGVDGYDYSRGQLIEDVEHTFEEIKPLYEHLHAYVRAKLMNAYPSYISPIGCLPAHLLGDMWGRFWTNLYSLTVPFGQKPNIDVTDAMVDQAWDAQRIFKEAEKFFVSVGLPNMTQGFWEYSMLTDPGNVQKAVCHPTAWDLGKGDFRILMCTKVTMDDFLTAHHEMGHIQYDMAYAAQPFLLRNGANEGFHEAVGEIMSLSAATPKHLKSIGLLSPDFQEDNETEINFLLKQALTIVGTLPFTYMLEKWRWMVFKGEIPKDQWMKKWWEMKREIVGVVEPVPHDETYCDPASLFHVSNDYSFIRYYTRTLYQFQFQEALCQAAKHEGPLHKCDISNSTEAGQKLFNMLRLGKSEPWTLALENVVGAKNMNVRPLLNYFEPLFTWLKDQNKNSFVGWSTDWSPYADQSIKVRISLKSALGDKAYEWNDNEMYLFRSSVAYAMRQYFLKVKNQTILFGEEDVRVANLKPRISFNFFVTAPKNVSDIIPRTEVEKAIRMSRSRINDAFRLNDSSLEFLGIQPTLG
The molecule B1 registered a koff of 0.00087 s⁻¹.

(Values after article PMC11342882 (Molecular Therapy. Methods & Clinical Development, 2024).)
